Experimental data published in PMC3708822.

Tests used:
GST-RT (HIV-1 (NL4-3)) = test: pull-down; 5 ug GST-tagged proteins on glutathione sepharose 4B beads incubated 1 hour at 4°C with normalized clarified bacterial lysates of 6His-IN in 20 mM HEPES-KOH pH 8.0, 5 mM DTT, 0.1% IGEPAL; washes with 200 mM NaCl, 0.5% IGEPAL; Western blot, densitometry relative to WT
GST-SAP18 [1] = biological target: GST-SAP18 (UniProt O00422); test: as above
GST-SAP18 [2] = biological target: GST-SAP18 (UniProt O00422); test: GST pull-down, Western blot quantitation; conditions: 5μg of GST-tagged proteins were used for each pull-down reaction; parent: est. 1.0; read off a plot
GST-INI1 [3] = biological target: GST-INI1 (UniProt Q12824); test: pull-down; 5 ug GST-INI1 on glutathione sepharose 4B beads incubated 1 hour at 4°C with clarified 293 T whole cell lysates normalized for YFP-IN levels; Western blot, densitometry, binding relative to YFP-WT
Sequence of GST-INI1 (Q12824 whole entry): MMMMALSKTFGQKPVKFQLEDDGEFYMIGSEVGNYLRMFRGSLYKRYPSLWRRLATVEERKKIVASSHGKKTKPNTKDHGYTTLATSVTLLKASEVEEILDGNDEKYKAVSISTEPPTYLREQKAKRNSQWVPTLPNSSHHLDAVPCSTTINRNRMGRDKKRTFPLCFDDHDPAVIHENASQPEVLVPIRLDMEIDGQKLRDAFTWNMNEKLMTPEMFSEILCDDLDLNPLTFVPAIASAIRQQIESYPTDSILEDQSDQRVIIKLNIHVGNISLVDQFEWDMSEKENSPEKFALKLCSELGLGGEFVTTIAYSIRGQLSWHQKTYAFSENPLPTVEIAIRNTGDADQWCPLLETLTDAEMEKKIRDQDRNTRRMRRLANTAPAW

GST-INI1 [4] = biological target: GST-INI1 (UniProt Q12824); test: pull-down; in vitro binding of His6-IN with GST-INI1; data not shown

Sequence of GST-SAP18 (O00422 whole entry): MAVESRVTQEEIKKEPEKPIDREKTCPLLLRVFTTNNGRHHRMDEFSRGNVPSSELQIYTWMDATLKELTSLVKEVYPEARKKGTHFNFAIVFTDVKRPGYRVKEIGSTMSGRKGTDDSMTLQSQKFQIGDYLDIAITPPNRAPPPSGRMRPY

Substance | ratio to parent (GST-SAP18 [2]) | % binding to INI1 relative to wild type (GST-INI1 [3]) [%] | further results
His6-tagged IN Q137R (natural protein) |  |  | % RT binding compared to WT (GST-RT (HIV-1 (NL4-3))): 45%; fold decrease in binding relative to WT (GST-SAP18 [1]): 4 fold
His6-tagged WT IN S147G | 1 |  | 
His6-tagged WT IN K71R | 1.1 |  | 
YFP-IN Q137R (natural protein) |  | 10 | 
His6-tagged WT IN D202G | 0.84 |  | 
YFP-IN S147G (natural protein) |  | 77 | 
YFP-IN K71R (natural protein) |  | 46 | 
His6-tagged IN K111E (natural protein) |  |  | % binding compared to His6-WT (GST-INI1 [4]): 60%
His6-tagged IN D202G (natural protein) |  |  | % RT binding compared to WT (GST-RT (HIV-1 (NL4-3))): 80%
YFP-IN H12Y (natural protein) |  | 20.6 | 
YFP-WT IN (natural protein) |  | 100 | 
YFP-IN D202G (natural protein) |  | 32 | 
His6-tagged WT IN K111E | 1.3 |  | 
